Data from the supplement of paper PMC9112550, “Optimization of the antimicrobial peptide Bac7 by deep mutational scanning” (BMC Biology, 2022).

Test system: Escherichia coli TOP10
Experiment: shrunken log2 fold change of peptide-encoding DNA abundance (4.5 h post-induction vs induction); higher = less antimicrobial activity (less host growth inhibition)
Conditions: time post-induction: 4.5 h; library: site-saturation at positions 5, 18, 19, 20
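Further: peptides expressed intracellularly from a pBAD plasmid library in pooled LB shake-flask culture, induced with 0.3% L-arabinose, DNA abundance read by NGS, three biological replicates, DESeq2 with apeglm shrinkage.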

Sequence	shrunken log2 fold change
RRIRQRPPRLPRPRPRPKRMPRP	-0.0373
RRIRQRPPRLPRPRPRPKSAPRP	-0.0082
RRIRQRPPRLPRPRPRPKSSPRP	0.0321
RRIRQRPPRLPRPRPRPKTNPRP	-0.117
RRIRQRPPRLPRPRPRPKTQPRP	0.121
RRIRQRPPRLPRPRPRPKTWPRP	1.14
RRIRQRPPRLPRPRPRPKYIPRP	-1.11
RRIRQRPPRLPRPRPRPKYKPRP	-0.445
RRIRQRPPRLPRPRPRPKYYPRP	-0.746
RRIRQRPPRLPRPRPRPLAEPRP	-0.0181
RRIRQRPPRLPRPRPRPLAKPRP	-0.041
RRIRQRPPRLPRPRPRPLCTPRP	-0.543
RRIRQRPPRLPRPRPRPLDHPRP	-0.198
RRIRQRPPRLPRPRPRPLDMPRP	0.0532
RRIRQRPPRLPRPRPRPLDSPRP	-0.00448
RRIRQRPPRLPRPRPRPLEFPRP	0.052
RRIRQRPPRLPRPRPRPLEQPRP	0.0165
RRIRQRPPRLPRPRPRPLESPRP	-0.0344
RRIRQRPPRLPRPRPRPLEVPRP	-0.0417
RRIRQRPPRLPRPRPRPLFEPRP	0.0725
RRIRQRPPRLPRPRPRPLFHPRP	-0.733
RRIRQRPPRLPRPRPRPLFSPRP	-0.258
RRIRQRPPRLPRPRPRPLGEPRP	0.0549
RRIRQRPPRLPRPRPRPLGFPRP	0.0916
RRIRQRPPRLPRPRPRPLGLPRP	0.103

Sequence	shrunken log2 fold change
RRIRQRPPRLPRPRPRPLGYPRP	-0.0704
RRIRQRPPRLPRPRPRPLHAPRP	0.164
RRIRQRPPRLPRPRPRPLIHPRP	-0.708
RRIRQRPPRLPRPRPRPLMTPRP	0.0563
RRIRQRPPRLPRPRPRPLMYPRP	-0.608
RRIRQRPPRLPRPRPRPLPAPRP	0.214
RRIRQRPPRLPRPRPRPLPRPRP	0.724
RRIRQRPPRLPRPRPRPLRWPRP	0.585
RRIRQRPPRLPRPRPRPLSLPRP	-0.0321
RRIRQRPPRLPRPRPRPLTEPRP	-0.22
RRIRQRPPRLPRPRPRPLTHPRP	0.045
RRIRQRPPRLPRPRPRPLWLPRP	0.0736
RRIRQRPPRLPRPRPRPLWYPRP	-0.367
RRIRQRPPRLPRPRPRPMAWPRP	-0.128
RRIRQRPPRLPRPRPRPMCPPRP	0.00821
RRIRQRPPRLPRPRPRPMCQPRP	-0.053
RRIRQRPPRLPRPRPRPMDRPRP	0.0291
RRIRQRPPRLPRPRPRPMELPRP	-0.109
RRIRQRPPRLPRPRPRPMGRPRP	-0.00151
RRIRQRPPRLPRPRPRPMGWPRP	0.379
RRIRQRPPRLPRPRPRPMHDPRP	-0.0216
RRIRQRPPRLPRPRPRPMHQPRP	-0.195
RRIRQRPPRLPRPRPRPMINPRP	-0.0423
RRIRQRPPRLPRPRPRPMKVPRP	0.0879
RRIRQRPPRLPRPRPRPMNIPRP	-0.809

Sequence	shrunken log2 fold change
RRIRQRPPRLPRPRPRPMNKPRP	-0.169
RRIRQRPPRLPRPRPRPMNPPRP	-0.0843
RRIRQRPPRLPRPRPRPMNVPRP	-0.0102
RRIRQRPPRLPRPRPRPMPKPRP	0.128
RRIRQRPPRLPRPRPRPMQSPRP	0.108
RRIRQRPPRLPRPRPRPMRMPRP	0.0593
RRIRQRPPRLPRPRPRPMRYPRP	0.0851
RRIRQRPPRLPRPRPRPMWAPRP	-0.127
RRIRQRPPRLPRPRPRPMWEPRP	0.00271
RRIRQRPPRLPRPRPRPMYCPRP	-0.526
RRIRQRPPRLPRPRPRPNADPRP	0.00101
RRIRQRPPRLPRPRPRPNAPPRP	0.105
RRIRQRPPRLPRPRPRPNCFPRP	0.0427
RRIRQRPPRLPRPRPRPNCPPRP	0.0556
RRIRQRPPRLPRPRPRPNCYPRP	-0.284
RRIRQRPPRLPRPRPRPNDWPRP	0.142
RRIRQRPPRLPRPRPRPNDYPRP	-0.179
RRIRQRPPRLPRPRPRPNEMPRP	0.105
RRIRQRPPRLPRPRPRPNEQPRP	0.0394
RRIRQRPPRLPRPRPRPNERPRP	-0.0297
RRIRQRPPRLPRPRPRPNESPRP	-0.0813
RRIRQRPPRLPRPRPRPNFIPRP	-0.402
RRIRQRPPRLPRPRPRPNKAPRP	-0.041
RRIRQRPPRLPRPRPRPNKCPRP	-0.145
RRIRQRPPRLPRPRPRPNKDPRP	-0.665

Sequence	shrunken log2 fold change
RRIRQRPPRLPRPRPRPNLEPRP	-0.136
RRIRQRPPRLPRPRPRPNLHPRP	-0.255
RRIRQRPPRLPRPRPRPNLVPRP	0.0528
RRIRQRPPRLPRPRPRPNMDPRP	-0.225
RRIRQRPPRLPRPRPRPNMKPRP	-0.336
RRIRQRPPRLPRPRPRPNNYPRP	-0.53
RRIRQRPPRLPRPRPRPNPDPRP	-0.0331
RRIRQRPPRLPRPRPRPNPPPRP	0.0904
RRIRQRPPRLPRPRPRPNRSPRP	-0.0178
RRIRQRPPRLPRPRPRPNSCPRP	0.0314
RRIRQRPPRLPRPRPRPNTKPRP	-0.199
RRIRQRPPRLPRPRPRPNVDPRP	-0.0229
RRIRQRPPRLPRPRPRPNVTPRP	0.0508
RRIRQRPPRLPRPRPRPNYCPRP	-0.0656
RRIRQRPPRLPRPRPRPNYWPRP	-0.251
RRIRQRPPRLPRPRPRPPDDPRP	-0.308
RRIRQRPPRLPRPRPRPPEMPRP	-0.162
RRIRQRPPRLPRPRPRPPFDPRP	0.283
RRIRQRPPRLPRPRPRPPGCPRP	0.342
RRIRQRPPRLPRPRPRPPGHPRP	0.249
RRIRQRPPRLPRPRPRPPITPRP	-0.0813
RRIRQRPPRLPRPRPRPPKHPRP	-0.142
RRIRQRPPRLPRPRPRPPNDPRP	0.0155
RRIRQRPPRLPRPRPRPPPMPRP	0.558
RRIRQRPPRLPRPRPRPPPYPRP	-0.0506

Sequence	shrunken log2 fold change
RRIRQRPPRLPRPRPRPPQCPRP	0.114
RRIRQRPPRLPRPRPRPPRTPRP	0.669
RRIRQRPPRLPRPRPRPPSVPRP	0.0958
RRIRQRPPRLPRPRPRPPTAPRP	0.504
RRIRQRPPRLPRPRPRPPTYPRP	-0.0183
RRIRQRPPRLPRPRPRPPVIPRP	-0.498
RRIRQRPPRLPRPRPRPPVVPRP	0.126
RRIRQRPPRLPRPRPRPPWCPRP	0.0207
RRIRQRPPRLPRPRPRPQCKPRP	-0.102
RRIRQRPPRLPRPRPRPQDCPRP	-0.186
RRIRQRPPRLPRPRPRPQDDPRP	-0.0165
RRIRQRPPRLPRPRPRPQECPRP	-0.00962
RRIRQRPPRLPRPRPRPQENPRP	-0.0517
RRIRQRPPRLPRPRPRPQHFPRP	0.14
RRIRQRPPRLPRPRPRPQHKPRP	-0.205
RRIRQRPPRLPRPRPRPQHNPRP	-0.786
RRIRQRPPRLPRPRPRPQLTPRP	-0.405
RRIRQRPPRLPRPRPRPQNIPRP	-0.882
RRIRQRPPRLPRPRPRPQNKPRP	-0.22
RRIRQRPPRLPRPRPRPQNVPRP	-0.0161
RRIRQRPPRLPRPRPRPQQLPRP	-0.0824
RRIRQRPPRLPRPRPRPQQPPRP	0.00789
RRIRQRPPRLPRPRPRPQSMPRP	-0.395
RRIRQRPPRLPRPRPRPQSQPRP	-0.159
RRIRQRPPRLPRPRPRPQTMPRP	0.0333

Sequence	shrunken log2 fold change
RRIRQRPPRLPRPRPRPQVMPRP	0.095
RRIRQRPPRLPRPRPRPQVWPRP	-0.0346
RRIRQRPPRLPRPRPRPQWDPRP	0.0263
RRIRQRPPRLPRPRPRPQYFPRP	-0.00133
RRIRQRPPRLPRPRPRPQYMPRP	-0.587
RRIRQRPPRLPRPRPRPRAHPRP	0.638
RRIRQRPPRLPRPRPRPRARPRP	0.579
RRIRQRPPRLPRPRPRPRCQPRP	-0.0547
RRIRQRPPRLPRPRPRPRDCPRP	0.142
RRIRQRPPRLPRPRPRPRDFPRP	0.984
RRIRQRPPRLPRPRPRPRDTPRP	0.0606
RRIRQRPPRLPRPRPRPREPPRP	0.0406
RRIRQRPPRLPRPRPRPREQPRP	-0.00783
RRIRQRPPRLPRPRPRPRFFPRP	0.0926
RRIRQRPPRLPRPRPRPRFHPRP	-0.177
RRIRQRPPRLPRPRPRPRHMPRP	-0.316
RRIRQRPPRLPRPRPRPRHNPRP	-0.0654
RRIRQRPPRLPRPRPRPRITPRP	1.06
RRIRQRPPRLPRPRPRPRIWPRP	0.123
RRIRQRPPRLPRPRPRPRKEPRP	-0.0194
RRIRQRPPRLPRPRPRPRKLPRP	0.0501
RRIRQRPPRLPRPRPRPRKQPRP	0.505
RRIRQRPPRLPRPRPRPRLAPRP	0.594
RRIRQRPPRLPRPRPRPRMFPRP	0.0604
RRIRQRPPRLPRPRPRPRMNPRP	-0.15
